Assay results published in patent US20140087995A1 (published 2014).
Numbered stars: 1 amine (or outer) side, 2 acyl side, 3 side chain; on linkers, the order of the positions; unused ones are H or OH. Bridge positions count the residues as written; N and C are the ends. * marks the point of attachment. C20 diacid = O=C(O)CCCCCCCCCCCCCCCCCCC(=O)*; γGlu = O=C(O)[C@H](CCC(=O)[*:2])N[*:1]

T1: human amylin receptor (human, UniProt P30988 25-474; O60896 24-148, limits assumed)
T1 construct: whole, on cells; Calcitonin receptor plus RAMP-3 gives the amylin 3(a) receptor; membranes of Amylin 3(a)/CRE-luc cells were used; also called hAmylin-R; hAmylinR
T1 sequence (looked up) 1: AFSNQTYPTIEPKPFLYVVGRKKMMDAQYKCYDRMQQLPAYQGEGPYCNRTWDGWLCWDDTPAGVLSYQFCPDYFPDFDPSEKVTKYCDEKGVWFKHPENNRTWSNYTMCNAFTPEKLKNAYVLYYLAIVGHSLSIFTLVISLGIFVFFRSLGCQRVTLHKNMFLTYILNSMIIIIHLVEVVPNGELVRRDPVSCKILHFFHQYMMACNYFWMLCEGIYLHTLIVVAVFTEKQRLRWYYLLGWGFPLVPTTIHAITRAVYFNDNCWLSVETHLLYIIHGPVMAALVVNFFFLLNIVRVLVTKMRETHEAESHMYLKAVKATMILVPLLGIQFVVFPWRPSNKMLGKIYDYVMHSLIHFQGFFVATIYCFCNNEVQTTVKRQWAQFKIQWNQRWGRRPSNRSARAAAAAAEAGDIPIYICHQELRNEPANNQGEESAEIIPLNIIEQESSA
T1 sequence (looked up) 2: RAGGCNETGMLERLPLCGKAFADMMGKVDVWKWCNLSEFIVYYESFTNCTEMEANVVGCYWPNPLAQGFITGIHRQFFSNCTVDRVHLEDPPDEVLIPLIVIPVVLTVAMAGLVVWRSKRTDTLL


What follows are binders tested against T1, human amylin receptor (assay: SPA competition binding, displacement of 125I-rat amylin from membranes with human amylin 3(a) receptor (Assay V)).
Summary of the method: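 Cell membranes were prepared by homogenisation in Na-HEPES/EDTA buffer, pH 7.4, and stored at −80° C. They were then coupled to SPA beads at 35 ng/μL final and exposed to compounds in assay buffer containing CaCl2, MgCl₂, OA and Tween20. After 120 min at 25° C, plates were counted and IC₅₀ derived.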

IC50 | Binder
114 pM | {C20 diacid-γGlu}-GRCNTATCATQRLAAFLRHSSPNFGAIPSSTNVGPNTY-NH2 (disulfide 3-8, also called -1G, 1R, 14A, 17R, 21P, 27P, 34P)
344 pM | {C20 diacid-γGlu}-GRCNTATCATQRLANFLRHSSPNFGAIPSSTNVGSHTY-NH2 (disulfide 3-8; SMILES CC[C@H](C)[C@H](NC(=O)[C@H](C)NC(=O)CNC(=O)[C@H](Cc1ccccc1)NC(=O)[C@H](CC(N)=O)NC(=O)[C@@H]1CCCN1C(=O)[C@H](CO)NC(=O)[C@H](CO)NC(=O)[C@H](Cc1c[nH]cn1)NC(=O)[C@H](CCCNC(=N)N)NC(=O)[C@H](CC(C)C)NC(=O)[C@H](Cc1ccccc1)NC(=O)[C@H](CC(N)=O)NC(=O)[C@H](C)NC(=O)[C@H](CC(C)C)NC(=O)[C@H](CCCNC(=N)N)NC(=O)[C@H](CCC(N)=O)NC(=O)[C@@H](NC(=O)[C@H](C)NC(=O)[C@@H]1CSSC[C@H](NC(=O)[C@H](CCCNC(=N)N)NC(=O)CNC(=O)CC[C@H](NC(=O)CCCCCCCCCCCCCCCCCCC(=O)O)C(=O)O)C(=O)N[C@@H](CC(N)=O)C(=O)N[C@@H]([C@@H](C)O)C(=O)N[C@@H](C)C(=O)N[C@@H]([C@@H](C)O)C(=O)N1)[C@@H](C)O)C(=O)N1CCC[C@H]1C(=O)N[C@@H](CO)C(=O)N[C@@H](CO)C(=O)N[C@H](C(=O)N[C@@H](CC(N)=O)C(=O)N[C@H](C(=O)NCC(=O)N[C@@H](CO)C(=O)N[C@@H](Cc1c[nH]cn1)C(=O)N[C@H](C(=O)N[C@@H](Cc1ccc(O)cc1)C(N)=O)[C@@H](C)O)C(C)C)[C@@H](C)O, also called -1G, 1R, 17R, 21P, 27P, 35H)
217 pM | {C20 diacid-γGlu}-GRCNTATCATQRLAHFLRHSSPNFGAIPSSTNVGPNTY-NH2 (disulfide 3-8; SMILES CC[C@H](C)[C@H](NC(=O)[C@H](C)NC(=O)CNC(=O)[C@H](Cc1ccccc1)NC(=O)[C@H](CC(N)=O)NC(=O)[C@@H]1CCCN1C(=O)[C@H](CO)NC(=O)[C@H](CO)NC(=O)[C@H](Cc1c[nH]cn1)NC(=O)[C@H](CCCNC(=N)N)NC(=O)[C@H](CC(C)C)NC(=O)[C@H](Cc1ccccc1)NC(=O)[C@H](Cc1c[nH]cn1)NC(=O)[C@H](C)NC(=O)[C@H](CC(C)C)NC(=O)[C@H](CCCNC(=N)N)NC(=O)[C@H](CCC(N)=O)NC(=O)[C@@H](NC(=O)[C@H](C)NC(=O)[C@@H]1CSSC[C@H](NC(=O)[C@H](CCCNC(=N)N)NC(=O)CNC(=O)CC[C@H](NC(=O)CCCCCCCCCCCCCCCCCCC(=O)O)C(=O)O)C(=O)N[C@@H](CC(N)=O)C(=O)N[C@@H]([C@@H](C)O)C(=O)N[C@@H](C)C(=O)N[C@@H]([C@@H](C)O)C(=O)N1)[C@@H](C)O)C(=O)N1CCC[C@H]1C(=O)N[C@@H](CO)C(=O)N[C@@H](CO)C(=O)N[C@H](C(=O)N[C@@H](CC(N)=O)C(=O)N[C@H](C(=O)NCC(=O)N1CCC[C@H]1C(=O)N[C@@H](CC(N)=O)C(=O)N[C@H](C(=O)N[C@@H](Cc1ccc(O)cc1)C(N)=O)[C@@H](C)O)C(C)C)[C@@H](C)O, also called -1G, 1R, 14H, 17R, 21P, 27P, 34P)
